The series is described as follows: soluble on expression in E. coli; label from the status in PepcDB or PDB records.
In the case of “MGSDKIHHHHHHMPGSQQSLPLAMVRGQALNSMPVDLFIPPEALEVFLETFEGPLDLLLYLIRKQKLDVVDLPIQQITQQYLLYIEILTEARIELAADYLVMAATLAEIKSRLLLPKMASEDDEEEDPRVVLIRQLKAYEVIKQAAVDIDTLPRIERDVFQASVSAAPDIKPITVPPEVSLVDIARAFGEVLKRIDANEDHHVKREHLSTRERMSQILAKLSSTEYIGFECLFDVSEGRAGVVVSFLALMELVKELLVELVQNEPFSPIYVKAY”, the “soluble on expression in E. coli” value is reported as “not soluble”.

Take “MSLNISTGLLIVESPTKAKTIAKMFSRPSVRIRNKVPVYETIIVDGNQIYVLDIVASKGHIVDLTLEDIGYYGIKVEDDGTIKPYYDLIKKCLDCNKIFSSASDKCPYCGSANLQSAQTTINLLRELALSVDKVFIASDPDTEGEKIAYDLASFLSPYNSNVYRVVYHEITKKAILEALRNPKKINTNLVMSQIVRRIEDRWIGFTLSNLLKTKFNGHNHGAGRVQTPVLGWIVNKTIKYKSAMGHVVYIDIAGYSIKKYFSEKRKVEEYINNLQVARIEKISEEKILLSPLPPFTTDTLLIEANMKYKLPANLVMKIAQDLFEAGLITYHRTDSTHISSVGIEIAKEYLQKQALIKEFVPRSWESSEEGAHEAIRPTRAIDVNELIQEIEENPYKYSIRFSKLHLLIYDLIFKRFIASQMSHAVGTKSRYLIKLGKDDNVDVELLSNAEGGFIKVYPVKVYNLPVGEIQPKVNITKGSSEQLLSYSDVISLMKSKGIGRPSTYAKTIENLMKHGYIVSSKRKSYLIATNRGISVYQFLSSKFYDLVSESTTSRLMTKLDDIALSKLNASTVLLEIFSEISTLVNPLKSEEGHHHHHH”: the “soluble on expression in E. coli” value is on record as “soluble”. For the sequence “MGSDKIHHHHHHMTNIGETIHQIRLSKGLTQQEVYSGIISRSFASRFESGANDIGASKLFAILDNLAISADELRFIHQNYQPSAYDQALWTIRHAYETLNFPALATWIREHRHSPHAYEQLIASYASILMLSYDHRSIGITTTTQPAFDHLRQAKTWTLQELKLVPVLIPIIASIDGLAALTPLTTRMAANCASYQTAWGDPFHVSNDLLDFYGSLFQTKLNFHDFQSAQNLKTKFTAIDSHQLNWDGRLSQQFWLGIWNLYFGDWQIGNQLLDEVSVLETHHHPRIDNTLFAIRNVRTKQAQTYRQSHQSHKHL”, the “soluble on expression in E. coli” value is given as “not soluble”.

In the case of “APARPAHPLDPLSTAEIKAATNTVKSYFAGKKISFNTVTLREPARKAYIQWKEQGGPLPPRLAYYVILEAGKPGVKEGLVDLASLSVIETRALETVQPILTVEDLCSTEEVIRNDPAVIEQCVLSGIPANEMHKVYCDPWTIGYDERWGTGKRLQQALVYYRSDEDDSQYSHPLDFCPIVDTEEKKVIFIDIPNRRRKVSKHKHANFYPKHMIEKVGAMRPEAPPINVTQPEGVSFKMTGNVMEWSNFKFHIGFNYREGIVLSDVSYNDHGNVRPIFHRISLSEMIVPYGSPEFPHQRKHALDIGEYGAGYMTNPLSLGCDCKGVIHYLDAHFSDRAGDPITVKNAVCIHEEDDGLLFKHSDFRDNFATSLVTRATKLVVSQIFTAANYEYCLYWVFMQDGAIRLDIRLTGILNTYILGDDEEAGPWGTRVYPNVNAHNHQHLFSLRIDPRIDGDGNSAAACDAKSSPYPLGSPENMYGNAFYSEKTTFKTVKDSLTNYESATGRSWDIFNPNKVNPYSGKPPSYKLVSTQCPPLLAKEGSLVAKRAPWASHSVNVVPYKDNRLYPSGDHVPQWSGDGVRGMREWIGDGSENIDNTDILFFHTFGITHFPAPEDFPLMPAEPITLMLRPRHFFTENPGLDIQPSYAMTTSEAKRAV”, the “soluble on expression in E. coli” value is listed as “soluble”. “MGSSHHHHHHSSGLVPRGSHMASMTGGQQMGRGSMTTHLQAKATLHNGVEMPWFGLGVFQVEEGSELVNAVKTAIVHGYRSIDTAAIYGNEAGVGEGIREGIEEAGISREDLFITSKVWNADLGYEETLAAFETSLSKLGLDYLDLYLIHWPVEGKYKEAWRALETLYKEGRIKAIGVSNFQIHHLEDLMTAAEIKPMINQVEFHPRLTQKELIRYCQNQGIQMEAWSPLMQGQLLDHPVLADIAQTYNKSVAQIILRWDLQHGIITIPKSTKEHRIKENASVFDFELTQDDMNRIDALNENLRVGPDPDNFDF”: the “soluble on expression in E. coli” value is reported as “soluble”. In the case of “MSLKLITCDLDGTLLNSSMEISDANVQAIKRAQENGIEFMVASGRAPHESQPMLKEYWIDCSFINLNGGLVFDTAGNLIVKNPLKLETAKKICRLLKKEGFYFELVTSNHVYSEDLSQRITNVAHLMVELNPMLTFKEAVLVSASKPAIVSIQQVPSYEDLMDEPGTEVMKILVFDSRGQYAFTDVIKKIEEIDKLSITSSAADNIEINAASAQKGQSLLDYAAAKGIKREEIAAIGDNLNDESMIQAAGTGVAMGNAVPQIKTIASFVTKSNNEDGVAWAIDKIIADNQKEGHHHHHH” it was “soluble”; in that of “MKPAAREARLPPRSPGLRWALPLLLLLLRLGQILCAGGTPSPIPDPSVATVATGENGITQISSTAESFHKQNGTGTPQVETNTSEDGESSGANDSLRTPEQGSNGTDGASQKTPSSTGPSPVFDIKAVSISPTNVILTWKSNDTAASEYKYVVKHKMENEKTITVVHQPWCNITGLRPATSYVFSITPGIGNETWGDPRVIKVITEPIPVSDLRVALTGVRKAALSWSNGNGTASCRVLLESIGSHEELTQDSRLQVNISGLKPGVQYNINPYLLQSNKTKGDPLGTEGGLDASNTERSRAGSPTAPVHDESLVGPVDPSSGQQSRDTEVLLVGLEPGTRYNATVYSQAANGTEGQPQAIEFRTNAIQVFDVTAVNISATSLTLIWKVSDNESSSNYTYKIHVAGETDSSNLNVSEPRAVIPGLRSSTFYNITVCPVLGDIEGTPGFLQVHTPPVPVSDFRVTVVSTTEIGLAWSSHDAESFQMHITQEGAGNSRVEITTNQSIIIGGLFPGTKYCFEIVPKGPNGTEGASRTVCNRTGKQI”, “soluble”. With “MLEYKLIRSKRRKTLALQVKHGQVTVRAPHYVTSAFIDTFIQEKSAWLRSKLAEQQKTPEYCDFSQGSNLLYLGEKVILNICIAKKSEVYFSHLVIAEIEPKNYQEITTKQLNVAISEKIHSRLINPLAISKQIKKQLEVYFKQQAEQLFSERLERISKQISLCPTAINIRQYRARWGSCNNRGEVSFNYLLMMTPLTVIDYVIVHELCHLEHLNHSKEFWHLVEKFCPNYEIAKKWLNTYQSLEHHHHHH” the entry was “soluble”; with “MNTTQRADQQTSADRRRRELLEAADRVVLRDGPHASMNAIAAEAGITKPILYRHFGDKGGLYAALAVRHTDALLASLRAALDAPAQRRQRVEATLDTYLAAIEARPQVYRFLMHPAESAGTPGDQSEQGFDVGKHSAPLLRRMGEELAQVIEERLDVGPGTQQLARVWGHGIVGMMHAAGDWWLGERPCPREELVRTLADLLWGRLAEAGDKEGGPGF”, “not soluble”.

Take “MEIYLVFVDAASNSNKFWTAKVEQNQLTVQWDRVGYKAQTKVHQFTSQAQAANKYNNLVFEKKAKGYQESQPQIESCGVVDIRRAMQLLNGLRSYVTNRNFNADYINLLNQYLKIIPTPLGMQLEPYRIFTSVADVDHQRELLSSLIPATPVAVTQAKQMPESQEKIVSLRGIHKNLWRHFLEHHHHHH”: the “soluble on expression in E. coli” value was “not soluble”. In the case of “MTIELRDVTMENYFDVLNLDVKEYQKQFIATNAISLAEAYVYTKNGDFVAPLAVYDNDAIIGFVMIAYDKKIGISSGNYLLFRFMIDKNFQNQGYFKPIMDKVLDYVRTAPAGLSNKLWLSYEPENEQARFCYLSYGFKETGEISENEVVAIYDLTIEK” it was “not soluble”; in that of “MDLVKVDDDVVREMEIRRQQHSKKYDRKFEELVKSMSEAHVEPEKMKIPFSRKPTEQETNNLREEWEKEYAALCTSGRTLARPNPNSSIFSKILAQGSPSSAKAGTTRSTPRTSKPPSADENIIFGQKLPETPAPKLLCPPRASPGSSRRLSIFVENLPENHAEIVRGTIFAGREAKIMQNDPENVPSTSTYGEPIRPYLLFARYISLEKGLLDDKNRYKSATDPRFREFLKENIKYKVKQSIKHRTSSEACAQILNYFKTLLQKQEVQVLGGYAPVLQLKTNKDIEYASLCIVHNYVILAERDESLIPLISSHITRLSVFYGYIEQVFCIILLSRSALLRQHPEECMVKFLATSMNPSSPDAIKKWSRQKAHIILFCSVFTKNAYCFSKGFKLKLTDEILWKYVDASTAHILEIPRGSFILWQLITTCKPRLQVDKERWIQLLLNIKFKIIPELDLDSFDGDEAMLMQLKQTIDELLHP”, “not soluble”.

As to “MTNPQFAGHPFGTTVTAETLRNTFAPLTQWEDKYRQLIMLGKQLPALPDELKAQAKEIAGCENRVWLGYTVAENGKMHFFGDSEGRIVRGLLAVLLTAVEGKTAAELQAQSPLALFDELGLRAQLSASRSQGLNALSEAIIAATKQV”, the “soluble on expression in E. coli” value is given as “not soluble”. In the case of “MSDDEIGDGARAFNQLIQALSLSIETETAVRTFTEMLVSELDVHQLTEQALALLLQHTGADGGAILIEVDGEIRVAASQGIGSAHTLANNDRVRSALRTERRHRVQLPEDLVVDGMLAQFRPKEVIIDPVRHKEVVLGAVVLASGQGFSAEDRNRLDVFERGLALALHNALLYDRLQTLAALDPLEHHHHHH” it was “not soluble”; in that of “MSLVVEQVKPNTGQEVQQIGQLQATKVKLPSTTKVALTKETQYLRNQVIASPVALFEIPADRGQMTLTITSEISDSVFYPHVMIVDAQGQVVESYEEVTFEYRKPRLHLGNRLVAELDFYPPQGYKSLFVLVYTKQQDLKGVTYVAHPARIDAEARGNYLPEVKDIPVPHTLTGTIELDVSGPSFLSFVRSEDRQTTTSTDAAKTQIQVQPDTQTYYFSSIERAVQANDLPKALSLLDEAKALGIEGAQEVFVKAVNARKEGHHHHHH”, “soluble”. “MGSDKIHHHHHHMTNEYEHLNAIQKIGLSILKEIIAICKRHDLTYYVYGGTLLGAIRHQGFIPWDDDVDIAMSRKDFEKLKQYQNEFPQYMFLDTIQQKGHQWTAAHVVDTRYKLEVGKGMKKATMSVWVDILIIDGVPNPGTFKYKIFSAAYLTARLLYKFSNFSNEVDLEKDRSAIETFFISFARITHIEKVINQHWAGCFIDWISRRYDLDKCEYGATLGGPQKMGETQPKYWFGKGKELLFEDIIVNGMEETENFLTKFYGPNYMTPPPLDKRNQHNVRLVEKIV”: the “soluble on expression in E. coli” value is listed as “not soluble”. On to “PNRRADDNATIRVTNLSEDTRETDLQELFRPFGSISRIYLAKDKTTGQSKGFAFISFHRREDAARAIAGVSGFGYDHLILNVEWAKPSTN”, for which the “soluble on expression in E. coli” value is “soluble”.

In the case of “MGSDKIHHHHHHMTQTPKPPLTIYLAAPRGFCAGVDRAIKIVEMALEKWGAPVFVRHEIVHNKYVVDDLKAKGAVFVEELSDCPDDRPVIFSAHGVPKSVPQAAAARQMVYVDATCPLVSKVHIEAQRHSDNGLQMVMIGHKGHPETIGTMGQLPDGEVLLVETVEDVATVEVRDPSRLAFVTQTTLSVDDTIEIVEALTTRFPAIVGPHKEDICYATTNRQEAVKAMAPKAEAMLVVGAPNSSNSKRLVEVGSRAGCAYSQLVQRAADIDWRALGDIKTLGITAGASAPEVLIEEVIQAFEDRFDVTRELVETAVENVEFKVPRVLRETA”, the “soluble on expression in E. coli” value is on record as “not soluble”. Turning to “MGSDKIHHHHHHLYINKRPIFLVHGLWNNPKLFEKLIKKINEDDYELYRPHLPHKYGKTSLKRLALDLDSKIEELVGPEIEIDIVGFSMGGLISRFWLQNHDGFLRTKRFFSIGTPHFGTYTAQMIPSFLMPGIAEMKRGSRLLSLLNNDLTSLEKVECTSFFTKWDLMSFPGWQAKLSIGESYHLPVLTHKELITNSSSLDILVKKIFKNS”, the “soluble on expression in E. coli” value was “not soluble”. With “SPNPPKLTKQMNAIIDTVINYKDSSGRQLSEVFIQLPSRKELPEYYELIRKPVDFKKIKERIRNHKYRSLGDLEKDVMLLCHNAQTFNLEGSQIYEDSIVLQSVFKSARQ” the entry was “soluble”.

(Values after the DeepSol protein solubility set.)
